According to PMC6114107, “Characterization and validation of Entamoeba histolytica pantothenate kinase as a novel anti-amebic drug target” (International Journal for Parasitology: Drugs and Drug …, 2018):

B1: E. histolytica pantothenate kinase (Entamoeba histolytica HM-1:IMSS) (protein)
chain: MSQPSHSIPSKHSVLSNEDIEHDDHITHTFEQYEFTKTQSPLPLNGVRRRTAPLSADMGGTMTKIVFWIPGDTDIDLPKYVEPEESVMSGFDLYPDPVLKVTMNSKGENELCFMKFPTSQIPEFIHYAKTSKLKEIYGIGNLQILNVTGGGAYKFANLLKDEMDLEVRQQDEMRCLVLGVNFLLLCCQEKLCFRFVNKTKLYREVTPEIFPYLLVNVGSGVSILKVTAPEKYERVSGSLIGGGTFWGLCCLLTNYKSFDEMLQAAQYGQHQNVDLYVKDIYGRCYDSVGLAADMMASSFGKIQKVPCGEAKNHYSEADIAQGLMMMVCGSIAHLGFELTKLHHINRIFYTGGFVAHNPVVWEAITTMLTTWSSGSVDANFLEYDGYFGSIGALLLSEYEEELM

Legend:
Format in all cases: biochemical, Entamoeba histolytica
recombinant EhPanK = assay: Regulation of EhPanK by CoA, acetyl CoA and malonyl CoA (double-reciprocal plots); settings: inhibitor 0, 0.5, 2 mM
From the text: PanK from other organisms was reported to be negatively regulated by allosteric inhibition with CoA, acetyl CoA, and malonyl CoA ([Calder et al., 1999]; [Takagi et al., 2010]; [Vallari et al., 1987]). […] The mechanisms of inhibition by acetyl CoA were not clear but seemed to be the mixed type with respect to ATP and pantothenate (Fig. 3).
Fig. 2 Effect of CoA, acetyl CoA, and malonyl CoA on the pantothenate kinase activities. Relative activities of EhPanK in the presence of various concentrations of inhibitors to those without inhibitors are shown. […] The assays were carried out three times independently, and the results are shown as means ± SEM of triplicates.
Fig. 3 Double-reciprocal plots of the recombinant EhPanK in the presence of CoA (A and B), malonyl CoA (C and D), or acetyl CoA (E and F). The enzymatic activities were determined with various concentrations of ATP and 0.2 mM pantothenate (A, C, and E) or various concentrations of pantothenate and 100 μM ATP (B, D, and F), in the presence of three concentrations of inhibitors (0, 0.5, and 2 mM). Data are shown in means ± SEM of triplicate analyses.

[1] = substrate: CC(C)(CO)[C@@H](O)C(=O)NCCC(=O)O; assay: Kinetic parameters of recombinant EhPanK for its substrates; settings: other: apparent Km at saturating concentration of the other substrate, 37 °C, pH 6, mean ± SEM
Experimental: (§1) PanK and DPCK activities in the cell lysate were measured with coupled assays using ADP Hunter™ Plus Assay kit (DiscoverX, US) according to the manufacturer's instructions. […] Kinetic data were estimated by curve fitting with the Michaelis–Menten equation using GraphPad Prism (GraphPad Software Inc., San Diego, USA). This experiment was repeated three times in triplicate with proteins isolated from two independent extractions, and kinetic values are presented as the means ± S.E. for three independent kinetic assays.
(§2) Table 1 summarizes the apparent Km, Vmax, and Kcat values for EhPanK using pantothenate and ATP as substrates.
(§3) Fig. S5. Optimum pH and temperature (A) and initial rate plots (B, C) of EhPanK. B) The velocity of EhPanK reaction at various pantothenate concentrations in the presence of 25, 50, or 100 μM ATP. C). The velocity of EhPanK reaction at various ATP concentrations in the presence of 8, 64, or 128 μM pantothenate. […] Assays for panes B and C were conducted at 37 °C at pH 6. Data are shown in mean ± SEM of three replicates.

[2] = substrate: Nc1ncnc2c1ncn2[C@@H]1O[C@H](COP(=O)(O)OP(=O)(O)OP(=O)(O)O)[C@@H](O)[C@H]1O; assay: as above; settings: other: apparent Km at saturating concentration of the other substrate, 37 °C, pH 6, mean ± SEM
Experimental: as §1, §2, §3

Molecule | Mechanism of inhibition with respect to ATP (recombinant EhPanK; various ATP, 0.2 mM pantothenate) | Mechanism of inhibition with respect to pantothenate (recombinant EhPanK; various pantothenate, 100 μM ATP) | Km [1] [µM] | Vmax [1] [µmol/min/mg] | kcat [1] [s⁻¹] | kcat/Km [1] [M⁻¹ s⁻¹] | Km [2] [µM] | Vmax [2] [µmol/min/mg] | kcat [2] [s⁻¹] | kcat/Km [2] [M⁻¹ s⁻¹]
CC(=O)SCCNC(=O)CCNC(=O)[C@H](O)C(C)(C)COP(=O)(O)OP(=O)(O)OC[C@H]1O[C@@H](n2cnc3c(N)ncnc32)[C@H](O)[C@@H]1OP(=O)(O)O [acetyl CoA] | mixed type | mixed type | – | – | – | – | – | – | – | –
B1 | – | – | 53.2 ± 7.1 | 2.79 | 2.11 ± 0.075 | 39700 ± 1330 | 41.4 ± 3.9 | 2.84 | 2.15 ± 0.153 | 51800 ± 3670
